Assay [1] addresses extracellular domain (ECD) of human epidermal growth factor receptor (EGFR) (human) (UniProt P00533). The assay can be described thus: cross-linking.
The target of assay [2] is extracellular domain (ECD) of human epidermal growth factor receptor 2 (HER2) (human) (UniProt P04626). The assay can be described thus: cross-linking.
Assay [3] has the same target. The experiment in a line: cross-linking. This is another data set of the same source.
The target is the same in assay [4]. The assay can be described thus: cross-linking. This is another data set of the same source.
For another assay, the target named is MBP-Z(6H). The assay can be described thus: cross-linking.
Another assay concerns the target MBP-Z(6Y). The experiment in a line: cross-linking.
In the next assay the target is MBP-Z(6K). The assay can be described thus: cross-linking.
Assay [5] concerns the target extracellular domain (ECD) of human epidermal growth factor receptor 2 (HER2) (Homo sapiens, UniProt P04626). The experiment in a line: ELISA. Background: In an ELISA, binding on a coated surface is turned into a signal by an enzyme label.

11 molecules from PMC11560669 (Angewandte Chemie (International ed. in English), 2024) can be followed below.

Where a chain is given by its changes, count along the chain named. Numbers in names are those of the source. Read-outs that look alike come from different tables or passages of the source.

For the molecule “covalent NK engager 7D12(Y109FSY/E44R)-C21 (bispecific antibody)”, the fold change of kobs of cross-linking against 7D12(Y109FSY)-C21 in assay [1] stood at 2.5 fold. On to nanobody 2rs15d(D54FSY) (VHH), for which the kobs of cross-linking in assay [2] turned out to be 0.568 h⁻¹. Molecule nanobody 2rs15d(D54FSY/D56R) (VHH) had a fold change of kobs of cross-linking against 2rs15d(D54FSY) at pH 6.0 in assay [3] of 10.7 fold. Also, the values for the kobs of cross-linking in assay [3], in assay [4] and in assay [2] were 0.705 h⁻¹, 0.888 h⁻¹ and 1.96 h⁻¹, respectively. Further, in assay [4], the fold change of kobs of cross-linking against 2rs15d(D54FSY) at pH 6.5 is 6.6 fold.

nanobody 7D12(Y109FSY/E44R) (VHH) displayed a kobs of cross-linking in assay [1] of 0.342 h⁻¹.

Molecule “Zspa affibody Afb(36PFY/F32R) (designed binder)” displayed a percent increase of the PFEx cross-linking rate against Afb(36PFY) with MBP-Z(6H) of 44%. Besides, the kobs of cross-linking with MBP-Z(6Y) is 0.0218 h⁻¹.

“Zspa affibody Afb(36FSY/F32R) (designed binder)”: the fold change of cross-linking rate against Afb(36FSY) is 3.7 fold in the assay with MBP-Z(6H), 3.4 fold with MBP-Z(6K) and 10.5 fold with MBP-Z(6Y). Also, the values for the fold change of cross-linking yield at 16 h against Afb(36FSY) in the assay with MBP-Z(6H), with MBP-Z(6K) and in the assay with MBP-Z(6Y) were 2.9 fold, 2.3 fold and 7.9 fold, respectively. In assay [1], nanobody 7D12(Y109FFY/E44R) (VHH) displayed a kobs of cross-linking of 0.66 h⁻¹. For nanobody 7D12(Y109mFSY/E44R) (VHH), the fold change of kobs of cross-linking against 7D12(Y109mFSY) in assay [1] stood at 1.9 fold.

B1: nanobody 2rs15d(D54Y) with the Arg mutation at G53 (VHH)
VHH: QVQLQESGGGSVQAGGSLKLTCAASGYIFNSCGMGWYRQSPGRERELVSRISRYGDTWHKESVKGRFTISQDNVKKTLYLQMNSLKPEDTAVYFCAVCYNLETYWGQGTQVTVSS
Regarding B1, the binding result in assay [5] was “binds”.

B2: nanobody 2rs15d(D54Y) with the Arg mutation at G55 (VHH)
VHH: B1 VHH with R53G, G55R
Turning to B2, the binding result in assay [5] is “binds”.

B3: nanobody 2rs15d(D54Y) with the Arg mutation at D56 (VHH)
VHH: B1 VHH with R53G, D56R
Take B3: the “fold decrease of binding affinity against 2rs15d(D54Y)” value in assay [5] was determined as 14 fold.
